US12673985B2, “Method for the treatment or prophylaxis of cancer by targeting the extracellular portion of keratin 14 (KRT14) residing on cancer cells” (Hudson Institute of Medical Research, priority 2019, dated 2026)

B1: rK14: exogenously added, full-length recombinant KRT14 protein (protein)
chain: MTTCSRQFTSSSSMKGSCGIGGGIGGGSSRISSVLAGGSCRAPSTYGGGLSVSSSRFSSGGACGLGGGYGGGFSSSSSSFGSGFGGGYGGGLGAGLGGGFGGGFAGGDGLLVGSEKVTMQNLNDRLASYLDKVRALEEANADLEVKIRDWYQRQRPAEIKDYSPYFKTIEDLRNKILTATVDNANVLLQIDNARLAADDFRTKYETELNLRMSVEADINGLRRVLDELTLARADLEMQIESLKEELAYLKKNHEEEMNALRGQVGGDVNVEMDAAPGVDLSRILNEMRDQYEKMAEKNRKDAEEWFFTKTEELNREVATNSELVQSGKSEISELRRTMQNLEIELQSQLSMKASLENSLEETKGRYCMQLAQIQEMIGSVEEQLAQLRCEMEQQNQEYKILLDVKTRLEQEIATYRRLLEGEDAHLSSSQFSSGSQSSRDVTSSSRQIRTKVMDVHDGKVVSTHEQVLRTKN

Assays:
[1] = tested on: OVCAR4 ovarian cancer cells; experiment: Real time cell analysis (RTCA) of proliferation with cisplatin and mAb AN-17; type: cell-based, human
Procedure: Real time cell analysis (RTCA) was conducted as previously described (PMID: 31443478; Bilandzic et al., Cancers (Basel). 2019; 11(9), E1228) using an xCELLigence RTCA SP 96-well instrument (ACEA Biosciences). Cell lines were synchronized in G0 by overnight incubation in serum-free media and were seeded at 0.5×10^3 cells/0.15 ml/per well. […] Impedance readings were taken every 15 minutes for the experimental duration. mAb AN-17 comprises the heavy chain variable region of SEQ ID NO:3 and the light chain variable region of SEQ ID NO:5, encoded by the nucleic acid sequences of SEQ ID NOs:2 and 4, respectively (see also FIGS. 21 and 22A-22B).

ovarian cancer cells = experiment: Real-time in vitro invasion assay (xCELLigence RTCA) with anti-KRT14 antibodies, rK14 and competing peptides; type: cell-based, human; details: for restoration of invasive capacity in competition with anti N-terminal KRT14 antibody: competition assay (FIG. 4B, 5B)
Procedure: xCELLigence Real Time Cell Analyses (RTCA). Real time cell analyses (RTCA) were conducted using an xCELLigence RTCA SP 96-well instrument (ACEA Biosciences). Cell lines were synchronized in Go phase by overnight incubation in serum-free media prior to commencement. For proliferation assays, cells were seeded at 0.5×10^3 cells/0.14 ml/per well (as outlined in the experimental text), and impedance readings taken every 5 minutes for 8 hours (in order to monitor cell adhesion), and subsequently every 15 minutes for 24 hours (to monitor cell proliferation). For invasion assays the upper chamber of a CIM-16 well plate was coated with Matrigel matrix (1:10 in SFM; BD Biosciences, San Jose, CA). Cells were seeded into the upper chamber (as above), with media+/−10% v/v FBS added to the lower chamber. All assays were performed in duplicate or triplicate, with at least three independent experiments.
Using flow cytometry and immunocytochemical staining of intact cells, it was observed that the N terminus of KRT14 is exposed at the cell surface (FIGS. 4A-4B). Consistent with other studies (Papafotiou et al. (2016) supra; Rock et al. (2009) supra), KRT14+ cells represented only a subset of tumor cell population (FIG. 4A). […] Thus, loss of invasive capacity was directly due to binding of the antibody of KRT14. Moreover, this effect is mediated by antibody binding to the N-terminus of KRT14; and the N-terminus was exposed on the external side of cells, accessible to antibody binding.
Antigenicity and hydrophobicity plots were used to examine the first 200 amino acids of KRT14 in silico (FIG. 5A). Five potentially antigenic regions were predicted, and six peptides encompassing to these regions were synthesized for use in further competition assays. Blockade of the N-terminal antibody by peptides #4 and #5 restored invasion (FIG. 5B) and migration (FIG. 5C) of ovarian cancer cells in vitro. […] Based on antibody and peptide competition assays, the surface-exposed region of the KRT14 protein was defined within the amino sequence NH2-[…] (SEQ ID NO:1). […]

Molecule | cell viability and proliferation ([1]; cisplatin alone at 1.25 μg/ml) | cell viability and proliferation ([1]; cisplatin alone at 15 μg/ml or 20 μg/ml) | invasion by ovarian cancer cells in vitro (ovarian cancer cells; antibody or rK14 added exogenously (FIG. 4B)) | restoration of invasive capacity in competition with anti N-terminal KRT14 antibody (ovarian cancer cells) | restoration of invasive capacity in competition with anti N-terminal KRT14 antibody (ovarian cancer cells; listed as recombinant KRT14 protein)
N.N.[Cl][Pt][Cl] [cisplatin, reference compound] | sub-lethal and cells continued to proliferate | complete cell death | – | – | –
B1 | – | – | had no effect alone | successfully competed with a N-term antibody to restore invasive capacity | could compete for antibody binding, and resorted invasion in vitro
